Laboratory results published in patent US20200079833A1 (AstraZeneca / MedImmune, published 2020).
Starred links: 1 amine or outer side, 2 acyl side, 3 side chain; linkers in the order of their positions; H or OH if unused. Non-standard residues stand in square brackets, D forms with d. Groups on a side chain read outwards from the residue. Primed or numbered codes have the meaning given here. No end group written: not given here. *: point of attachment. Dodecanoyl(12-OPh(4-COOH)) = O=C(O)c1ccc(OCCCCCCCCCCCC(=O)*)cc1; γGlu = O=C(O)[C@H](CCC(=O)[*:2])N[*:1]; αMeF = C[C@](N)(Cc1ccccc1)C(=O)O; αMeK = C[C@](N)(CCCCN)C(=O)O; Lauroyl = CCCCCCCCCCCC(=O)*; αMeS = C[C@](N)(CO)C(=O)O; PEG2′ = not defined here; Aib = CC(C)(N)C(=O)O; Ahx = NCCCCCC(=O)O

T1: glucose-dependent insulinotropic peptide (gastric inhibitory polypeptide) receptor (GIPR) (human, UniProt P48546 22-466)
T1 sequence (looked up): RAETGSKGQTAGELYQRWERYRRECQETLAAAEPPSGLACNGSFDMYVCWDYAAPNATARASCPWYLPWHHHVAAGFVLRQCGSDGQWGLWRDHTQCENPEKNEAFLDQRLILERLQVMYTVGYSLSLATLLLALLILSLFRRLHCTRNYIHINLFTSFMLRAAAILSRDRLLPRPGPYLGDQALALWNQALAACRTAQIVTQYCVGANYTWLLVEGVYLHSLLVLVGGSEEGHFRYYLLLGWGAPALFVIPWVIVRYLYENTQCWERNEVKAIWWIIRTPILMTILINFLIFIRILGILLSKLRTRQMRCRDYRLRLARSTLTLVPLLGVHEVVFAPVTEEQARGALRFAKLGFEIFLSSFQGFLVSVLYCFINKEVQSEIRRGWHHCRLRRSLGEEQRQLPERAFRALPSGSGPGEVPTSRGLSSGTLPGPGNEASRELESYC

B1: SEQ ID NO 133 (peptide)
peptide: H[Aib]EGS[αMeF]TSDV[αMeS]S[αMeF]LEGEAAK([Ahx-Ahx-Ahx-Lauroyl])E[αMeF]IA[αMeF]VV[αMeK]GG-NH2
modifications: N-terminus assumed
SMILES: CCCCCCCCCCCC(=O)NCCCCCC(=O)NCCCCCC(=O)NCCCCCC(=O)NCCCC[C@H](NC(=O)[C@H](C)NC(=O)[C@H](C)NC(=O)[C@H](CCC(=O)O)NC(=O)CNC(=O)[C@H](CCC(=O)O)NC(=O)[C@H](CC(C)C)NC(=O)[C@](C)(Cc1ccccc1)NC(=O)[C@H](CO)NC(=O)[C@](C)(CO)NC(=O)[C@@H](NC(=O)[C@H](CC(=O)O)NC(=O)[C@H](CO)NC(=O)[C@@H](NC(=O)[C@](C)(Cc1ccccc1)NC(=O)[C@H](CO)NC(=O)CNC(=O)[C@H](CCC(=O)O)NC(=O)C(C)(C)NC(=O)[C@@H](N)Cc1c[nH]cn1)[C@@H](C)O)C(C)C)C(=O)N[C@@H](CCC(=O)O)C(=O)N[C@@](C)(Cc1ccccc1)C(=O)N[C@H](C(=O)N[C@@H](C)C(=O)N[C@@](C)(Cc1ccccc1)C(=O)N[C@H](C(=O)N[C@H](C(=O)N[C@@](C)(CCCCN)C(=O)NCC(=O)NCC(N)=O)C(C)C)C(C)C)[C@@H](C)CC
B2: SEQ ID NO 140 (peptide)
peptide: H[Aib]EGS[αMeF]TSDV[αMeS]S[αMeF]LEGEAAK([Ahx-Dodecanoyl(12-OPh(4-COOH))])E[αMeF]IA[αMeF]VV[αMeK]GG-NH2
modifications: N-terminus assumed
SMILES: CC[C@H](C)[C@H](NC(=O)[C@](C)(Cc1ccccc1)NC(=O)[C@H](CCC(=O)O)NC(=O)[C@H](CCCCNC(=O)CCCCCNC(=O)CCCCCCCCCCCOc1ccc(C(=O)O)cc1)NC(=O)[C@H](C)NC(=O)[C@H](C)NC(=O)[C@H](CCC(=O)O)NC(=O)CNC(=O)[C@H](CCC(=O)O)NC(=O)[C@H](CC(C)C)NC(=O)[C@](C)(Cc1ccccc1)NC(=O)[C@H](CO)NC(=O)[C@](C)(CO)NC(=O)[C@@H](NC(=O)[C@H](CC(=O)O)NC(=O)[C@H](CO)NC(=O)[C@@H](NC(=O)[C@](C)(Cc1ccccc1)NC(=O)[C@H](CO)NC(=O)CNC(=O)[C@H](CCC(=O)O)NC(=O)C(C)(C)NC(=O)[C@@H](N)Cc1c[nH]cn1)[C@@H](C)O)C(C)C)C(=O)N[C@@H](C)C(=O)N[C@@](C)(Cc1ccccc1)C(=O)N[C@H](C(=O)N[C@H](C(=O)N[C@@](C)(CCCCN)C(=O)NCC(=O)NCC(N)=O)C(C)C)C(C)C
B3: SEQ ID NO 139 (peptide)
peptide: H[Aib]EGS[αMeF]TSDV[αMeS]S[αMeF]LEGEAAK([γGlu-γGlu-γGlu-Dodecanoyl(12-OPh(4-COOH))])E[αMeF]IA[αMeF]VV[αMeK]GG-NH2
modifications: N-terminus assumed
SMILES: CC[C@H](C)[C@H](NC(=O)[C@](C)(Cc1ccccc1)NC(=O)[C@H](CCC(=O)O)NC(=O)[C@H](CCCCNC(=O)CC[C@H](NC(=O)CC[C@H](NC(=O)CC[C@H](NC(=O)CCCCCCCCCCCOc1ccc(C(=O)O)cc1)C(=O)O)C(=O)O)C(=O)O)NC(=O)[C@H](C)NC(=O)[C@H](C)NC(=O)[C@H](CCC(=O)O)NC(=O)CNC(=O)[C@H](CCC(=O)O)NC(=O)[C@H](CC(C)C)NC(=O)[C@](C)(Cc1ccccc1)NC(=O)[C@H](CO)NC(=O)[C@](C)(CO)NC(=O)[C@@H](NC(=O)[C@H](CC(=O)O)NC(=O)[C@H](CO)NC(=O)[C@@H](NC(=O)[C@](C)(Cc1ccccc1)NC(=O)[C@H](CO)NC(=O)CNC(=O)[C@H](CCC(=O)O)NC(=O)C(C)(C)NC(=O)[C@@H](N)Cc1c[nH]cn1)[C@@H](C)O)C(C)C)C(=O)N[C@@H](C)C(=O)N[C@@](C)(Cc1ccccc1)C(=O)N[C@H](C(=O)N[C@H](C(=O)N[C@@](C)(CCCCN)C(=O)NCC(=O)NCC(N)=O)C(C)C)C(C)C
B4: SEQ ID NO 138 (peptide)
peptide: H[Aib]EGS[αMeF]TSDV[αMeS]S[αMeF]LEGEAAK([γGlu-γGlu-Dodecanoyl(12-OPh(4-COOH))])E[αMeF]IA[αMeF]VV[αMeK]GG-NH2
modifications: N-terminus assumed
SMILES: CC[C@H](C)[C@H](NC(=O)[C@](C)(Cc1ccccc1)NC(=O)[C@H](CCC(=O)O)NC(=O)[C@H](CCCCNC(=O)CC[C@H](NC(=O)CC[C@H](NC(=O)CCCCCCCCCCCOc1ccc(C(=O)O)cc1)C(=O)O)C(=O)O)NC(=O)[C@H](C)NC(=O)[C@H](C)NC(=O)[C@H](CCC(=O)O)NC(=O)CNC(=O)[C@H](CCC(=O)O)NC(=O)[C@H](CC(C)C)NC(=O)[C@](C)(Cc1ccccc1)NC(=O)[C@H](CO)NC(=O)[C@](C)(CO)NC(=O)[C@@H](NC(=O)[C@H](CC(=O)O)NC(=O)[C@H](CO)NC(=O)[C@@H](NC(=O)[C@](C)(Cc1ccccc1)NC(=O)[C@H](CO)NC(=O)CNC(=O)[C@H](CCC(=O)O)NC(=O)C(C)(C)NC(=O)[C@@H](N)Cc1c[nH]cn1)[C@@H](C)O)C(C)C)C(=O)N[C@@H](C)C(=O)N[C@@](C)(Cc1ccccc1)C(=O)N[C@H](C(=O)N[C@H](C(=O)N[C@@](C)(CCCCN)C(=O)NCC(=O)NCC(N)=O)C(C)C)C(C)C
B5: SEQ ID NO 137 (peptide)
peptide: H[Aib]EGS[αMeF]TSDV[αMeS]S[αMeF]LEGEAAK([γGlu-Dodecanoyl(12-OPh(4-COOH))])E[αMeF]IA[αMeF]VV[αMeK]GG-NH2
modifications: N-terminus assumed
SMILES: CC[C@H](C)[C@H](NC(=O)[C@](C)(Cc1ccccc1)NC(=O)[C@H](CCC(=O)O)NC(=O)[C@H](CCCCNC(=O)CC[C@H](NC(=O)CCCCCCCCCCCOc1ccc(C(=O)O)cc1)C(=O)O)NC(=O)[C@H](C)NC(=O)[C@H](C)NC(=O)[C@H](CCC(=O)O)NC(=O)CNC(=O)[C@H](CCC(=O)O)NC(=O)[C@H](CC(C)C)NC(=O)[C@](C)(Cc1ccccc1)NC(=O)[C@H](CO)NC(=O)[C@](C)(CO)NC(=O)[C@@H](NC(=O)[C@H](CC(=O)O)NC(=O)[C@H](CO)NC(=O)[C@@H](NC(=O)[C@](C)(Cc1ccccc1)NC(=O)[C@H](CO)NC(=O)CNC(=O)[C@H](CCC(=O)O)NC(=O)C(C)(C)NC(=O)[C@@H](N)Cc1c[nH]cn1)[C@@H](C)O)C(C)C)C(=O)N[C@@H](C)C(=O)N[C@@](C)(Cc1ccccc1)C(=O)N[C@H](C(=O)N[C@H](C(=O)N[C@@](C)(CCCCN)C(=O)NCC(=O)NCC(N)=O)C(C)C)C(C)C

Target: GLP-1 receptor (GLP-1R) (human, UniProt P43220 24-463)
Assay: cell-based or functional assay

| cAMP Mean pM GLP-1R | cAMP Primary assay EC50 GLP-1R n1 | cAMP Primary assay EC50 GLP-1R n2 | Binder |
| --- | --- | --- | --- |
| 5 pM | 0.0054 nM | 0.0045 nM | H[Aib]EGS[αMeF]TSDV[αMeS]S[αMeF]LEGEAAK([PEG2′-PEG2′-Lauroyl])E[αMeF]IA[αMeF]VV[αMeK]GG-NH2 [SEQ ID NO 135] |
| 29.4 pM | 0.034 nM | 0.025 nM | B1 |
| 4.9 pM | 0.0059 nM | 0.0039 nM | B2 |
| 25.5 pM | 0.029 nM | 0.022 nM | B3 |
| 17.2 pM | 0.019 nM | 0.015 nM | B4 |
| 5.2 pM | 0.0066 nM | 0.0038 nM | B5 |
| 6 pM | 0.007 nM | 0.0049 nM | H[Aib]EGS[αMeF]TSDV[αMeS]S[αMeF]LEGEAAK([PEG2′-Lauroyl])E[αMeF]IA[αMeF]VV[αMeK]GG-NH2 [SEQ ID NO 134] |
| 3 pM | 0.0035 nM | 0.0025 nM | H[Aib]EGS[αMeF]TSDV[αMeS]S[αMeF]LEGEAAK([PEG2′-PEG2′-PEG2′-Lauroyl])E[αMeF]IA[αMeF]VV[αMeK]GG-NH2 [SEQ ID NO 136] |

Target: glucagon receptor (GCGR) (human, UniProt P47871 26-477)
Assay: cell-based or functional assay

Sequence of glucagon receptor (GCGR) (P47871 26-477): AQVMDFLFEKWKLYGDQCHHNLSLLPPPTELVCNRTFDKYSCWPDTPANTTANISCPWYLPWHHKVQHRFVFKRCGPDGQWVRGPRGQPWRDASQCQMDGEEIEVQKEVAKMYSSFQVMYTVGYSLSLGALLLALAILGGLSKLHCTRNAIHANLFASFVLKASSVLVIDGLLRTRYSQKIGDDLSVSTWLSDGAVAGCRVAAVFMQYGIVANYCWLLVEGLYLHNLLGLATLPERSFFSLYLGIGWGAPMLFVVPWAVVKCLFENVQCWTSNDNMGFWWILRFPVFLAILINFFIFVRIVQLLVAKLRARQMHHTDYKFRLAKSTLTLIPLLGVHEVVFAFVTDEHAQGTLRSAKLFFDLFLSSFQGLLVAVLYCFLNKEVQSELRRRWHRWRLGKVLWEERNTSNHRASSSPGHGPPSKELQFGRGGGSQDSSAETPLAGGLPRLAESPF

| cAMP Primary assay EC50 Gluc-R | cAMP Primary assay EC50 Gluc-R (2nd) | Binder |
| --- | --- | --- |
| 27 nM | 27 nM | H[Aib]EGS[αMeF]TSDV[αMeS]S[αMeF]LEGEAAK([PEG2′-PEG2′-Lauroyl])E[αMeF]IA[αMeF]VV[αMeK]GG-NH2 [SEQ ID NO 135] |
| 27 nM | 27 nM | B1 |
| 27 nM | 27 nM | B2 |
| 26 nM | 26 nM | B3 |
| 26 nM | 26 nM | B4 |
| 27 nM | 27 nM | B5 |
| 28 nM | 28 nM | H[Aib]EGS[αMeF]TSDV[αMeS]S[αMeF]LEGEAAK([PEG2′-Lauroyl])E[αMeF]IA[αMeF]VV[αMeK]GG-NH2 [SEQ ID NO 134] |
| 26 nM | 26 nM | H[Aib]EGS[αMeF]TSDV[αMeS]S[αMeF]LEGEAAK([PEG2′-PEG2′-PEG2′-Lauroyl])E[αMeF]IA[αMeF]VV[αMeK]GG-NH2 [SEQ ID NO 136] |

Target: T1, glucose-dependent insulinotropic …
Assay: cell-based or functional assay

| cAMP Primary assay EC50 GIP-R | cAMP Primary assay EC50 GIP-R (2nd) | Binder |
| --- | --- | --- |
| 27 nM | 27 nM | H[Aib]EGS[αMeF]TSDV[αMeS]S[αMeF]LEGEAAK([PEG2′-PEG2′-Lauroyl])E[αMeF]IA[αMeF]VV[αMeK]GG-NH2 [SEQ ID NO 135] |
| 27 nM | 27 nM | B1 |
| 27 nM | 27 nM | B2 |
| 26 nM | 26 nM | B3 |
| 26 nM | 26 nM | B4 |
| 27 nM | 27 nM | B5 |
| 28 nM | 28 nM | H[Aib]EGS[αMeF]TSDV[αMeS]S[αMeF]LEGEAAK([PEG2′-Lauroyl])E[αMeF]IA[αMeF]VV[αMeK]GG-NH2 [SEQ ID NO 134] |
| 26 nM | 26 nM | H[Aib]EGS[αMeF]TSDV[αMeS]S[αMeF]LEGEAAK([PEG2′-PEG2′-PEG2′-Lauroyl])E[αMeF]IA[αMeF]VV[αMeK]GG-NH2 [SEQ ID NO 136] |
